Substrate in the series: O=S(O)O
Briefly: purified protein. It counts as biochemical, Homo sapiens. The settings on record: pH 8.0, cytochrome c as electron acceptor, no added chloride.

The text below walks through data of publication PMC2890295 (Biochemistry, 2010).

As a reminder, the kcat is the number of substrate molecules converted per active site and unit of time at saturation.

B1: wt hSO (human sulfite oxidase) (Homo sapiens) (protein)
chain: ESTHIYTKEEVSSHTSPETGIWVTLGSEVFDVTEFVDLHPGGPSKLMLAAGGPLEPFWALYAVHNQSHVRELLAQYKIGELNPEDKVAPTVETSDPYADDPVRHPALKVNSQRPFNAEPPPELLTENYITPNPIFFTRNHLPVPNLDPDTYRLHVVGAPGGQSLSLSLDDLHNFPRYEITVTLQCAGNRRSEMTQVKEVKGLEWRTGAISTARWAGARLCDVLAQAGHQLCETEAHVCFEGLDSDPTGTAYGASIPLARAMDPEAEVLLAYEMNGQPLPRDHGFPVRVVVPGVVGARHVKWLGRVSVQPEESYSHWQRRDYKGFSPSVDWETVDFDSAPSIQELPVQSAITEPRDGETVESGEVTIKGYAWSGGGRAVIRVDVSLDGGLTWQVAKLDGEEQRPRKAWAWRLWQLKAPVPAGQKELNIVCKAVDDGYNVQPDTVAPIWNLRGVLSNAWHRVHVYVSP
For B1, the turnover number (kcat) was found to be 27 ± 2 s⁻¹.
